Measurements reported in publication PMC7324553, “Activity-Based Protein Profiling Reveals That Cephalosporins Selectively Active on Non-replicating Mycobacterium tuberculosis Bind Multiple Protein Families and Spare Peptidoglycan Transpeptidases” (Frontiers in Microbiology, 2020).

Biological target: the molecule itself
Assay: SEC; Superdex 75 column, 20 mM Tris-Cl (pH 7.5), 150 mM NaCl; profile compared with protein size standards (44 and 17 kDa)

B1: Rv1738 (uncharacterized protein Rv1738; potential hibernation factor) (natural protein)
chain: MCGDQSDHVLQHWTVDISIDEHEGLTRAKARLRWREKELVGVGLARLNPADRNVPEIGDELSVARALSDLGKRMLKVSTHDIEAVTHQPARLLY
stoichiometry N: 2
